One block for each molecule: values may come before it.
Legend:
[1] = relative to 5% sucrose in water; cited from earlier work
[2] = molecular target: T1, recombinant ScExg1 (rScExg1), Exg1p of Saccharomyces cerevisiae (Saccharomyces cerevisiae, UniProt P23776); experiment: Enzyme kinetics of recombinant ScExg1 on oNPG and pNPG substrates (β-glucosidase activity); format: biochemical; conditions: pNP/oNP release at 405 nm
T1 sequence (P23776 41-448): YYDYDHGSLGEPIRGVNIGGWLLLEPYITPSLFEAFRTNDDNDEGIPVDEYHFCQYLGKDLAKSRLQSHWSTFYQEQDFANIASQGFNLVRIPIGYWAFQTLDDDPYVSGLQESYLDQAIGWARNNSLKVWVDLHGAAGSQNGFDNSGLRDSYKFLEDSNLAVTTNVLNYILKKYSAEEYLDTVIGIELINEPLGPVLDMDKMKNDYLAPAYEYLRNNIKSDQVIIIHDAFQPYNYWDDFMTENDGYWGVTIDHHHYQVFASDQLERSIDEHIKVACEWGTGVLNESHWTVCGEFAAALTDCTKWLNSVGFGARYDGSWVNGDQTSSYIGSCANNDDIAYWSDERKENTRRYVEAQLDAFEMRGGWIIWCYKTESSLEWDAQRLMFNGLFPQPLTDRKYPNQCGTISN
Procedure: The optimal conditions for β-glucosidase activity were determined. The optimum pH was obtained by monitoring enzyme activity at a range of pH levels (from pH 3 to pH 9) in the reaction buffer. Incubation was carried out at 60° C. for 30 min. To analyze enzyme stability, the same buffer system and pH range were used, however, the reactions were performed at 4° C. for 1 h. The optimum temperature was determined in 20 mM acetate buffer at pH 5 in a range of temperatures from 20° C. to 90° C. For temperature stability analysis, β-glucosidase was extracted and activity was monitored following 1 h incubation in 20 mM acetate buffer, pH 5. […] The f-glucosidase activity was determined by measuring the levels of p-nitrophenol (pNP) or o-nitrophenol (oNP) released from pNPG or oNPG after the glucose was hydrolyzed by glucosidase. The released pNP or oNP was detected at a wavelength of 405 nm and calibrated with standard curves. […]
(§1) To evaluate the preferred pH, preferred temperature and hydrolyzing capability of rDbExg1, we used pNPG substrates and compared the results with ScExg1. rDbExg1 retained half of its activity over a pH range of 3.0 to 7.0 and was stable at pH 5.0-7.0. […] The Michaelis constant (Km) and maximum velocity (Vmax) of rDbExg1 and rScExg1 were also compared and calculated (Table 3). […]

[3] = substrate: O=[N+]([O-])c1ccc(O[C@@H]2O[C@H](CO)[C@@H](O)[C@H](O)[C@H]2O)cc1; experiment: as above; format: biochemical, Saccharomyces cerevisiae; conditions: other: rScExg1; pNP/oNP release at 405 nm
Procedure: (§2) The optimal conditions for β-glucosidase activity were determined. The optimum pH was obtained by monitoring enzyme activity at a range of pH levels (from pH 3 to pH 9) in the reaction buffer. Incubation was carried out at 60° C. for 30 min. To analyze enzyme stability, the same buffer system and pH range were used, however, the reactions were performed at 4° C. for 1 h. The optimum temperature was determined in 20 mM acetate buffer at pH 5 in a range of temperatures from 20° C. to 90° C. For temperature stability analysis, β-glucosidase was extracted and activity was monitored following 1 h incubation in 20 mM acetate buffer, pH 5. […] The enzyme and substrate mixture were incubated under optimum enzymatic reactions conditions of 60° C., pH 5. The f-glucosidase activity was determined by measuring the levels of p-nitrophenol (pNP) or o-nitrophenol (oNP) released from pNPG or oNPG after the glucose was hydrolyzed by glucosidase. The released pNP or oNP was detected at a wavelength of 405 nm and calibrated with standard curves. Mogroside conversion was stopped by the addition of one volume of pure methanol at specific time points. The converted products were then purified for HPLC-MS/MS analysis.
(§3) Because mogrosides are known to be hydrolyzed by Exg1p in S. cerevisiae (ScExg1), we hypothesized that an Exg1-like glucan-β-glucosidase in D. bruxellensis (DbExg1) might be responsible for the observed mogroside conversion. To test this hypothesis, DbExg1 was cloned with a galactose-induced promoter sequence and six-histidine tag (6×His) at the C-terminus of the gene. The plasmids were transformed and expressed in S. cerevisiae as previously described. […] The recombinant DbExg1 (termed rDbExg1) was purified by Ni^2+-affinity chromatography (data not shown).
(§4) To evaluate the preferred pH, preferred temperature and hydrolyzing capability of rDbExg1, we used pNPG substrates and compared the results with ScExg1. rDbExg1 retained half of its activity over a pH range of 3.0 to 7.0 and was stable at pH 5.0-7.0. The optimum pH was 5.0 in a sodium phosphate buffer system (FIG. 3C). […] The optimum temperature for rDbExg1 was 60° C. However, the enzyme only retained 40% of its activity after incubation at 60° C. for 30 min. […] (FIG. 3B). Both ScExg1 and rDbExg1 were stable at temperatures below 50° C. (FIGS. 3B and D). The Michaelis constant (Km) and maximum velocity (Vmax) of rDbExg1 and rScExg1 were also compared and calculated (Table 3).
(§5) Table 3: Kinetic parameters of recombinant DbExg1 and ScExg1 proteins on oNPG and pNPG substrates (4) Enzymatic Hydrolysis of Mogrosides

[4] = substrate: O=[N+]([O-])c1ccccc1O[C@@H]1O[C@H](CO)[C@@H](O)[C@H](O)[C@H]1O; experiment: as above; format: biochemical, Saccharomyces cerevisiae; conditions: other: rScExg1; pNP/oNP release at 405 nm
Procedure: as §2, §3, §4, §5

[5] = β-Glucosidase activity, pH and temperature optimum and stability of recombinant Exg1 proteins on pNPG; format: biochemical
Procedure: as §2

[6] = substrate: O=[N+]([O-])c1ccc(O[C@@H]2O[C@H](CO)[C@@H](O)[C@H](O)[C@H]2O)cc1; experiment: Enzyme kinetics of recombinant DbExg1 on oNPG and pNPG substrates (β-glucosidase activity); format: biochemical, Dekkera bruxellensis; conditions: other: rDbExg1, substrate 10 mM, acetate buffer, pH 5, 60° C., pNP/oNP release at 405 nm
Excerpt: Exg1-like β-glucosidase from Dekkera bruxellensis (DbExg1) was cloned with the Gateway cloning system. Briefly, the coding region of DbExg1 was first amplified by PCR. The forward primer was
underline indicates gene coding region). Genomic DNA extracted from D. bruxellensis was used as the template. Yeast expression vectors (pYES-DEST52) were further introduced to generate galactose-inducible plasmids carrying the correct DbExg1 sequence. The yeast vectors were then amplified and transformed into Exg1-deleted S. cerevisiae (exg1Δ mutants) for the galactose-induced DbExg1 protein expression assay. DbExg1 gene was also integrated into (exg1Δ mutants) with a GPD promoter. For protein purification, the culture media was concentrated with a 30 kDa MWCO (molecular weight cutoff) ultrafiltration membrane (Vivaspin 20, GE Co., Taipei, Taiwan). The extracellular protein concentrates were purified by Ni^2+-affinity chromatography. Protein homogeneity in each fraction was assessed by SDS-PAGE and silver staining.
as §2, with “analysis. […]” for “analysis.”
as §1

[7] = substrate: O=[N+]([O-])c1ccccc1O[C@@H]1O[C@H](CO)[C@@H](O)[C@H](O)[C@H]1O; experiment: purified protein, by the assay type; conditions: other: rDbExg1, substrate 10 mM, acetate buffer, pH 5, 60° C., pNP/oNP release at 405 nm

Molecule: C[C@H](CC[C@@H](O[C@@H]1O[C@H](CO[C@@H]2O[C@H](CO)[C@@H](O)[C@H](O)[C@H]2O)[C@@H](O)[C@H](O)[C@H]1O[C@@H]1O[C@H](CO)[C@@H](O)[C@H](O)[C@H]1O)C(C)(C)O)[C@H]1CC[C@@]2(C)[C@@H]3CC=C4[C@@H](CC[C@H](O[C@@H]5O[C@H](CO)[C@@H](O)[C@H](O)[C@H]5O)C4(C)C)[C@]3(C)[C@H](O)C[C@]12C [SI, siamenoside I]
- times sweeter than 5% sucrose [1]: 563 times

Molecule: C[C@H](CC[C@@H](O[C@@H]1O[C@H](CO)[C@@H](O)[C@H](O)[C@H]1O[C@@H]1O[C@H](CO)[C@@H](O)[C@H](O)[C@H]1O)C(C)(C)O)[C@H]1CC[C@@]2(C)[C@@H]3CC=C4[C@@H](CC[C@H](O[C@@H]5O[C@H](CO)[C@@H](O)[C@H](O)[C@H]5O)C4(C)C)[C@]3(C)[C@H](O)C[C@]12C [MG IIIE, mogroside III E]
- times sweeter than 5% sucrose [1]: less sweet

Molecule: C[C@H](CC[C@@H](O[C@@H]1O[C@H](CO[C@@H]2O[C@H](CO)[C@@H](O)[C@H](O)[C@H]2O)[C@@H](O)[C@H](O)[C@H]1O[C@@H]1O[C@H](CO)[C@@H](O)[C@H](O)[C@H]1O)C(C)(C)O)[C@H]1CC[C@@]2(C)[C@@H]3CC=C4[C@@H](CC[C@H](O[C@@H]5O[C@H](CO[C@@H]6O[C@H](CO)[C@@H](O)[C@H](O)[C@H]6O)[C@@H](O)[C@H](O)[C@H]5O)C4(C)C)[C@]3(C)[C@H](O)C[C@]12C [MG V, mogroside V]
- times sweeter than 5% sucrose [1]: 392 times

Molecule: C[C@H](CC[C@@H](O[C@@H]1O[C@H](CO)[C@@H](O)[C@H](O)[C@H]1O[C@@H]1O[C@H](CO)[C@@H](O)[C@H](O)[C@H]1O)C(C)(C)O)[C@H]1CC[C@@]2(C)[C@H]3CC=C4[C@@H](CC[C@H](O[C@@H]5O[C@H](CO[C@@H]6O[C@H](CO)[C@@H](O)[C@H](O)[C@H]6O)[C@@H](O)[C@H](O)[C@H]5O)C4(C)C)[C@]3(C)[C@H](O)C[C@]12C [MG IV, mogroside IV]
- times sweeter than 5% sucrose [1]: 465 times

- Kcat [2]: 0.458 ± 0.012 s⁻¹
- Vmax [2]: 9.16 ± 0.247 µmol/min/mg
Molecule: O=[N+]([O-])c1ccccc1O[C@@H]1O[C@H](CO)[C@@H](O)[C@H](O)[C@H]1O [o NPG, o-nitrophenol β-D-glucoside]

B1: recombinant ScExg1 (rScExg1), Exg1p of Saccharomyces cerevisiae (Saccharomyces cerevisiae S288C) (protein)
chain: T1 sequence (P23776 41-448)
- Km [3]: 865 ± 3 µM
- Vmax [3]: 11.7 µmol/min/mg
- kcat [3]: 0.587 ± 0.018 s⁻¹
- kcat/Km [3]: 679 ± 5 M⁻¹ s⁻¹
- Km [4]: 840 ± 42 µM
- optimum temperature [5]: 50 °C

B2: recombinant DbExg1 (rDbExg1), Exg1-like β-glucosidase from Dekkera bruxellensis, C-terminal 6xHis (Brettanomyces bruxellensis) (protein)
chain: APIILKKRDWDYTKDKIHGVNIGGWLVLEPYITPSLFETFGDDAPVDEYHYTQQLGKEEASKRLQEHWANWITEKDFEYIANLGLNMVRIPIGYWAFELQDNDPYVQGQQAYLDKALGWAEKNGLKVWIDLHGVPGSQNGFDNSGLRDQIDWQTGSGNVDFTLNVLKEMIEKYSDSDYSDTIIGIELLNEPLGSSLNMDELKVFYSSGYELVRDQDASVPVIIQDAFQSDYYWDDFLNTEQDTNIYGVVVDHHHYQVFSTGELQRDMDTRIQTACNWGKQEGGEYHWNVCGEFSAALTDCAKWLNGLGRGARYDSSYGGGAYVGSCDDLYTYDEDYWNNSDVIKQYRQYVEAQMDAFENGKMGGWVFWCWKTESAVEWDFQRLAGLNVIPQPLDDRLYPNQCSF
- Km [6]: 734 ± 2 µM
- Vmax [6]: 9.27 µmol/min/mg
- kcat [6]: 0.464 ± 0.006 s⁻¹
- kcat/Km [6]: 632 ± 7 M⁻¹ s⁻¹
- Km [7]: 781 ± 4 µM
- Vmax [7]: 10.4 µmol/min/mg
- kcat [7]: 0.518 s⁻¹
- kcat/Km [7]: 663 M⁻¹ s⁻¹

From patent US11180789B2, “Method for bioconversion of mogroside extracts into siamenoside I” (National Taiwan University, priority 2019, dated 2021)
